The values that follow come from the supplement of paper PMC9112550, “Optimization of the antimicrobial peptide Bac7 by deep mutational scanning” (BMC Biology, 2022).

For this series, the system named is Escherichia coli TOP10. Briefly: shrunken log2 fold change of peptide-encoding DNA abundance (4.5 h post-induction vs induction); higher = less antimicrobial activity (less host growth inhibition). To be noted: time post-induction: 4.5 h; library: site-saturation at positions 5, 18, 19, 20.
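Note: peptides expressed intracellularly from a pBAD plasmid library in pooled LB shake-flask culture, induced with 0.3% L-arabinose, DNA abundance read by NGS, three biological replicates, DESeq2 with apeglm shrinkage.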

In the case of RRIRERPPRLPRPRPRPSTMPRP, the “shrunken log2 fold change” value is -0.925.
The value for RRIRWRPPRLPRPRPRPTHLPRP was 0.0424; that for RRIRIRPPRLPRPRPRPFQMPRP was -0.271; that for RRIRYRPPRLPRPRPRPVQHPRP was -0.247.
To RRIRGRPPRLPRPRPRPVDGPRP belongs 0.587.
For the sequence RRIRSRPPRLPRPRPRPPQWPRP, the “shrunken log2 fold change” value was 0.504.
As for RRIRIRPPRLPRPRPRPMDPPRP, the “shrunken log2 fold change” value was -0.347.
As for RRIRLRPPRLPRPRPRPGFHPRP, the “shrunken log2 fold change” value was determined as 0.0368.
To RRIRDRPPRLPRPRPRPGFYPRP belongs 0.00794; to RRIRKRPPRLPRPRPRPWHNPRP, -0.124.
The value for RRIRRRPPRLPRPRPRPRFIPRP was 0.00289.
As for RRIRPRPPRLPRPRPRPLLSPRP, the “shrunken log2 fold change” value came out at 0.0345.
To RRIRSRPPRLPRPRPRPYPAPRP belongs -0.559; to RRIRPRPPRLPRPRPRPQREPRP, -0.063.
The value for RRIRHRPPRLPRPRPRPFQDPRP was 0.0239; that for RRIRYRPPRLPRPRPRPEFFPRP was -0.0803; that for RRIRYRPPRLPRPRPRPSKLPRP was -0.917.
With RRIRRRPPRLPRPRPRPHMAPRP, the “shrunken log2 fold change” value was -0.128.
With RRIRPRPPRLPRPRPRPAIHPRP, the “shrunken log2 fold change” value was -0.196.
To RRIRERPPRLPRPRPRPIDQPRP belongs 0.00338.
In the case of RRIRNRPPRLPRPRPRPHQKPRP, the “shrunken log2 fold change” value was determined as 0.0226.
As for RRIRVRPPRLPRPRPRPCFHPRP, the “shrunken log2 fold change” value is -0.395.
In the case of RRIRERPPRLPRPRPRPFMFPRP, the “shrunken log2 fold change” value is -0.531.
As for RRIRYRPPRLPRPRPRPSWFPRP, the “shrunken log2 fold change” value is -0.942.
To RRIRCRPPRLPRPRPRPHAMPRP belongs -0.145; to RRIRHRPPRLPRPRPRPFYKPRP, -0.774; to RRIRMRPPRLPRPRPRPMMNPRP, -0.0818.
RRIRDRPPRLPRPRPRPTKEPRP: the “shrunken log2 fold change” value is -0.0917.
The value for RRIRYRPPRLPRPRPRPQYAPRP was -0.262; that for RRIRQRPPRLPRPRPRPDVVPRP was -0.01.
The value for RRIRWRPPRLPRPRPRPYPCPRP was -0.105; that for RRIRQRPPRLPRPRPRPQHVPRP was 0.00911; that for RRIRPRPPRLPRPRPRPSEFPRP was -0.0966.
The value for RRIRARPPRLPRPRPRPFDMPRP was 0.0608; that for RRIRPRPPRLPRPRPRPFIYPRP was -0.0739.
As to RRIRFRPPRLPRPRPRPGKWPRP, the “shrunken log2 fold change” value was -0.0163.
To RRIRKRPPRLPRPRPRPWIQPRP belongs -0.01.
The value for RRIRTRPPRLPRPRPRPMNCPRP was -0.0645; that for RRIRDRPPRLPRPRPRPQSQPRP was 0.112.
For the sequence RRIRFRPPRLPRPRPRPWVDPRP, the “shrunken log2 fold change” value was -0.608.
With RRIRLRPPRLPRPRPRPGQDPRP, the “shrunken log2 fold change” value worked out at 0.0899.
For the sequence RRIRHRPPRLPRPRPRPITHPRP, the “shrunken log2 fold change” value was -0.23.
For RRIRGRPPRLPRPRPRPTTIPRP, the “shrunken log2 fold change” value came out at 0.623.
The value for RRIRNRPPRLPRPRPRPHMEPRP was -0.145.
The value for RRIRLRPPRLPRPRPRPYIAPRP was -0.261.
To RRIRQRPPRLPRPRPRPNVAPRP belongs 0.236; to RRIRYRPPRLPRPRPRPKSEPRP, -0.0489.
Turning to RRIRERPPRLPRPRPRPTDYPRP, the “shrunken log2 fold change” value is -0.349.
To RRIRARPPRLPRPRPRPWEKPRP belongs -0.164; to RRIRDRPPRLPRPRPRPAYRPRP, -0.0687.
The value for RRIRGRPPRLPRPRPRPFYSPRP was -0.00304; that for RRIRERPPRLPRPRPRPQIDPRP was -0.046.
As for RRIRKRPPRLPRPRPRPLSDPRP, the “shrunken log2 fold change” value was 0.22.
RRIRLRPPRLPRPRPRPIGAPRP: the “shrunken log2 fold change” value was -0.0568.
The value for RRIRGRPPRLPRPRPRPTMQPRP was 0.907.
The value for RRIRLRPPRLPRPRPRPAEHPRP was 0.141.
Regarding RRIRNRPPRLPRPRPRPCWPPRP, the “shrunken log2 fold change” value is 0.274.
On to RRIRSRPPRLPRPRPRPAFPPRP, for which the “shrunken log2 fold change” value came to 0.278.
To RRIRCRPPRLPRPRPRPHVFPRP belongs 0.161.
Take RRIRWRPPRLPRPRPRPEYPPRP: the “shrunken log2 fold change” value is 0.208.
Take RRIRFRPPRLPRPRPRPRWYPRP: the “shrunken log2 fold change” value was -0.351.
The value for RRIRFRPPRLPRPRPRPDNTPRP was -0.491; that for RRIRTRPPRLPRPRPRPCTIPRP was -0.456; that for RRIRWRPPRLPRPRPRPGMKPRP was 0.0023.
To RRIRCRPPRLPRPRPRPRYPPRP belongs -0.00708; to RRIRDRPPRLPRPRPRPMTDPRP, -0.109; to RRIRMRPPRLPRPRPRPQMHPRP, 0.947.
The value for RRIRYRPPRLPRPRPRPINKPRP was -1.43.
In the case of RRIRSRPPRLPRPRPRPWIEPRP, the “shrunken log2 fold change” value was -0.0567.
To RRIRERPPRLPRPRPRPDMDPRP belongs 0.0527; to RRIRQRPPRLPRPRPRPLGSPRP, 0.0483; to RRIRSRPPRLPRPRPRPLPSPRP, 0.255.
As for RRIRYRPPRLPRPRPRPRFCPRP, the “shrunken log2 fold change” value is -0.17.
To RRIRGRPPRLPRPRPRPARTPRP belongs 0.545; to RRIRPRPPRLPRPRPRPQQPPRP, 0.132; to RRIRERPPRLPRPRPRPDSHPRP, -0.6.
For the sequence RRIRNRPPRLPRPRPRPCPMPRP, the “shrunken log2 fold change” value worked out at 0.151.
To RRIRRRPPRLPRPRPRPRHQPRP belongs 0.277.
Turning to RRIRTRPPRLPRPRPRPHFWPRP, the “shrunken log2 fold change” value was determined as 0.0783.
In the case of RRIRWRPPRLPRPRPRPCYFPRP, the “shrunken log2 fold change” value is -0.0204.
As for RRIRRRPPRLPRPRPRPWWGPRP, the “shrunken log2 fold change” value worked out at 0.288.
RRIRRRPPRLPRPRPRPDHRPRP: the “shrunken log2 fold change” value is -0.00663.
Consider RRIRLRPPRLPRPRPRPEKNPRP, for which the “shrunken log2 fold change” value was determined as 0.0916.
For RRIRLRPPRLPRPRPRPQTGPRP, the “shrunken log2 fold change” value was -0.247.
Turning to RRIRMRPPRLPRPRPRPIRVPRP, the “shrunken log2 fold change” value came to 0.335.
With RRIRIRPPRLPRPRPRPNSSPRP, the “shrunken log2 fold change” value was -0.369.
The value for RRIRIRPPRLPRPRPRPHNEPRP was -1.35; that for RRIRQRPPRLPRPRPRPWPSPRP was 0.168.
The value for RRIRTRPPRLPRPRPRPTFGPRP was 0.0406.
The value for RRIRDRPPRLPRPRPRPRIKPRP was -0.454; that for RRIRYRPPRLPRPRPRPEQDPRP was -0.0203.
